The nanobody polyreactivity screen of Harvey et al. (2022)

Assay: yeast display, Sf9 membrane polyspecificity reagent, FACS + sequencing; frameworks hold sequencing errors
Summary of the method: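 Polyreactivity labels are assigned by the sorting gate from which each nanobody was recovered. The gates were low and high (top ~1%), set on anti-HA fluorescence for expression and streptavidin fluorescence for reagent binding. Before sorting, galactose-induced (36–48 hours) yeast display cells were stained for 1 hour at 4 °C with 10% biotinylated, detergent-solubilized Sf9 membrane reagent.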

Sequence	polyreactivity (PSR sort gate)
QVQLVESGGGLVQAGGSLRLSCAASVRIFATNAMGWSRQAPGKERELVARISRRGGSTNYADSVKGRFTISRDNAKNTVYLQMNSLKPEDTAVYYCNVSFYWYRWYALLDYWGQVTQVTVSS	high polyreactivity
QVQLVESGGGLVQAGGSLRLSCAASVRIFFRYAMGWYRQAPGKERELVAAIRKSGGSTYYADSVKGRFTISRDNAKNTVYFQMNSLKPEDTAVYYCAADVYYYYGRKYNYWGQGTQVTVSS	low polyreactivity
QVQLVESGGGLVQAGGSLRLSCAASVRIFGSNVMGWYRQAPGKERELVASISSGGTTYYADSVKGLFTISRDNAKNTVYLQMNSLKPEDTAGYYCAKQWTRIYQYRWYPGTRTGYDYWGHGTQVTVSS	high polyreactivity
QVQLVESGGGLVQAGGSLRLSCAASVRIFGSNVMGWYRQAPGKERELVASISSGGTTYYADSVKGRFTISRDNAKNTVYLHMNSLKPEDTAVYYCAKQWTRIYQYRWYPGTRTGYDYWGQGTQVTVSS	high polyreactivity
QVQLVESGGGLVQAGGSLRLSCAASVRIFQRNVMGWYRQAPGKEWELVATINWSGASTYYADSVKGRFTISRDNAKNTVYLQMNSLTPEDTAVYYCAKDGHYPLVYLAFDYWGQGTQVTVSS	low polyreactivity
QVQLVESGGGLVQAGGSLRLSCAASVRIFYGYTMGWYRQAPGKERELVASIDYSTGRTYYADSVKGRFTISRDNAKNTVYLLMNSLKPEDTAVYYCNADPNYSFLRYDYWGQGTQVTVSS	high polyreactivity
QVQLVESGGGLVQAGGSLRLSCAASVRNYGINVMVWYRQAPGKERELVAAISYRTGSTYYADSVKGRFTISRDNAKNTVYLQMNSLKPEDTAVYYCDALRSIRTAWYDYWGQGTQVTVSS	high polyreactivity
QVQLVESGGGLVQAGGSLRLSCAASVRTFSAYAMGCSRQAPGKERELVARITSVDSTNYSDSVNGRFTFSRDNAKNNVYLQMNSLKPEDTAVYSCNATFGYPFVDYDDYWGQGTQVTVSS	low polyreactivity
QVQLVESGGGLVQAGGSLRLSCAASVRTYGFNTMGSYRQAPGKERELVAANTTSGGSTYYADSVKGRFTISRDNAKNTVYLQMNSLKPDDSAVYYCAKDYYSKHFPIYEYWGQGTQVTVSS	low polyreactivity
QVQLVESGGGLVQAGGSLRLSCAASVSIFEWYAMGRYRQAHGKERELVAAINSGGSTYYADSVKGRFTISRDNAKNTVYLQMNSLKPEDTAVYYCAAGTQAHAYVVRPIEMDYWGQGTQVTVSS	low polyreactivity
QVQLVESGGGLVQAGGSLRLSCAASVSIFVRNAMGWYRPAPGKERELGAADSVKGRFTISRDNAKNTVYLQMNSLKPEDTAVYYCAADEWIVHDGYYSSYYYWGQGTQVTVSS	low polyreactivity
QVQLVESGGGLVQAGGSLRLSCAASVSIMARNAMVWYRQAPGKERELVAAISNSGSTNYADSVKGRFTISRDNAKNTVYLQMNSLKPEDTAVYYCAKDADHGWFEYDYWGQGTQVTVSS	low polyreactivity
QVQLVESGGGLVQAGGSLRLSCAASVSNIKYNAMGWYRQAPGKERELVAAISSSGGTTYYADSVKGRFTISRDNAKNTVYLQMNSLKPEDTAVYYCNKYFRAGNGYGEEDYWGQGTQVTVSS	high polyreactivity
QVQLVESGGGLVQAGGSLRLSCAASVSTFDDNAMGWYIQAPGKERELVASITYRGGSTYYADSVKGRFTISRDNAKNTVYLQMNSLKPEDTAVYYCNADYTGAEYDYWGQGTQVTVSS	low polyreactivity
QVQLVESGGGLVQAGGSLRLSCAASVSTFKPYAMGWYRQAPGKERELVSAISGSGGSTYYADSVKGRFTISRDNAKNTVYLQMNSLKPEDTAVYYCAARFYVSYYYFGYEYWGQGTQVTVSS	high polyreactivity
QVQLVESGGGLVQAGGSLRLSCAASVSTFPGYAMGWYRQAPGKERELVAAISTSGGRTYYADSVKGRFTISRDNAKNTVYLQMNSLKPEDTAVYYCAARDTRSPYSGTQVEYWGQGTQVTVSS	low polyreactivity

Sequence	polyreactivity (PSR sort gate)
QVQLVESGGGLVQAGGSLRLSCAASVSTFYSYVMGWSRQAPGKETELVAAITYSGGRTYYADSVKGRFTISRDNAKNTVYLQMNSLKPEDTAVYYCAKRVFNYQRYDYWGQGTQVTVSS	high polyreactivity
QVQLVESGGGLVQAGGSLRLSCAASVYIFQSNVMGWYRQAPGKESELLAAITVSGGSTYYADSVKGRFTISRDNGKNTVYLQMKSLKPEDTAVYYCNKVGVKFRVDGWYDYWGQATQVTVSS	high polyreactivity
QVQLVESGGGLVQAGGSLRLSCAATGFIFDSYAMGWYRQAPGKERELVAAISWSGGRTYYADSVKGRFTISRDNAKNTVYLQMNSLKPEDTAVYYCNVRTKLSTSYDYWGQGTQVTVSS	high polyreactivity
QVQLVESGGGLVQAGGSLRLSCAATGFIFPINAMGWYRQAPGKERELVAAITGGGSTSYADSVKGRFTISRDNAKNTVYLQMNSLKPEDTAVYYCATDRLTYTKYGYWGQGTQVTVSS	low polyreactivity
QVQLVESGGGLVQAGGSLRLSCAATGFIFSYYAMGWYRQAPGKERELVATITSGGSTYYADSVKGRFTISRDNAKNTVYLQMNSLKPEDTAVYYCNADWYWRVYWGQGTQVTVSS	high polyreactivity
QVQLVESGGGLVQAGGSLRLSCAATGFIFYEYPMGWYRQAPGKERELVASINSDGRTDYADSVKGRFTISRDNAKNTVYLQMNSLKPEDTAVYYCAAALGYYGRHPYDYWGQGTQVTVSS	low polyreactivity
QVQLVESGGGLVQAGGSLRLSCAATGFTFYTYAMGWYRQATGKETELVADISSGGSTNYADSVKGRFRISRDNAKNTVYLQMNSLIPEDTAVYYCSDDYYFLDWYDYWGQGTQVTVSS	low polyreactivity
QVQLVESGGGLVQAGGSLRLSCAATGGTFNVYAMGWYRQAPGKESELVAAIRWSGGSTYYADSVKGRFTISRDNAKNTVYLQMNSLKPEDTAVYYCAARFYGRSQTYGSWGLGTQVTVSS	high polyreactivity
QVQLVESGGGLVQAGGSLRLSCAATGGTFYVYAMGWYRQAPGKERELVARITWRGGRTYYADSVKGRFTISRDNAKNTVYLQMYSLKPEDTAVYYCNAEQYSQFDYWGQGTQVTVSS	high polyreactivity
QVQLVESGGGLVQAGGSLRLSCAATGIIFDSYTMGWYRQAPGKERELVAAISVSGGSTYYADSVKVRFTISRDNAKNTVYLQMNSLKPEDTAVYYCAARGYAFNYMWPFNYWGQGTQVTVSS	low polyreactivity
QVQLVESGGGLVQAGGSLRLSCAATGIIFKRYTMGWYRQAPGKERELVATINSGTRTYADSVKGRFTISRDNAKNTVYLQMNSLKPEDTAVYYCARRGYYYDYWGLGTQVTVSS	high polyreactivity
QVQLVESGGGLVQAGGSLRLSCAATGITFEYNAMGWYRQAPGKERELVAAISLSSGSTYYADSVKGRFTISRDNAKNTVYLQMNSLKPEDTAVYYCNADTIIYEGGYWGQGTQVTVSS	low polyreactivity
QVQLVESGGGLVQAGGSLRLSCAATGLIFRSYAMGWYRQAPGKDRELVARISIRGGSTYYADSVKGRFTISRDNAKNTGSLQMNSLKPEDTAVYYCAAVGSFRGYRYDYWGQGTQVTVSS	high polyreactivity
QVQLVESGGGLVQAGGSLRLSCAATGLIFSLYAMGWYRQAPGKERELVAAISASDGSTYYADSVKGRFTISRDNAKNTVYLQMNSLKPEDTAVYYCAADSRPTQEYDYWGQGTQVTVSS	low polyreactivity
QVQLVESGGGLVQAGGSLRLSCAATGLIIRYYAMGWYRQAPGKEREFVAAITWNGGSTYADSVKGRFTISRDNAKNTVYLQMNSLKPEDTAVYYSAADLSYWDDFDYWGQGTQVTVSS	low polyreactivity
QVQLVESGGGLVQAGGSLRLSCAATGLIIYRNAMGWYRQAPGKEREFVAAISYSGGSTSYADSVKGRLTISRDNAKNTVYLQMNSLKPEDTAVYYCAVDQSRGWFYLYYYWGQGTQVTVSS	low polyreactivity
